B1: "Na(+)/H(+) exchange regulatory cofactor NHE-RF1" (Homo sapiens), O14745 (parent)
chain: MSADAAAGAPLPRLCCLEKGPNGYGFHLHGEKGKLGQYIRLVEPGSPAEKAGLLAGDRLVEVNGENVEKETHQQVVSRIRAALNAVRLLVVDPETDEQLQKLGVQVREELLRAQEAPGQAEPPAAAEVQGAGNENEPREADKSHPEQRELRPRLCTMKKGPSGYGFNLHSDKSKPGQFIRSVDPDSPAEASGLRAQDRIVEVNGVCMEGKQHGDVVSAIRAGGDETKLLVVDRETDEFFKKCRVIPSQEHLNGPLPVPFTNGEIQKENSREALAEAALESPRPALVRSASSDTSEELNSQDSPPKQDSTAPSSTSSSDPILDFNISLAMAKERAHQKRSSKRAPQMDWSKKNELFSNL

Variants of: B1
Settings: with moes_human MSN

Variant	effect of a mutation on the interaction
F355R	decreasing interaction

Reference: IntAct's records for PubMed 15020681
